Experimental data published in publication PMC2199314 (The Journal of Cell Biology, 2001).

Biological target: taxol-stabilized bovine brain microtubules (bovine, UniProt Q6B856 1-445)

Kd: ~500 nM
B1: Escherichia coli–purified Dam1p (natural protein, S. cerevisiae, UniProt P53267 1-343, looked up)
chain: MSEDKAKLGTTRSATEYRLSIGSAPTSRRSSMGESSSLMKFADQEGLTSSVGEYNENTIQQLLLPKIRELSDSIITLDSNFTRLNFIHESLADLNESLGSLLYGIMSNSWCVEFSQAPHDIQDDLIAIKQLKSLEDEKNNLVMELSNMERGIKRKKDEQGENDLAKASQNKQFNQPLFPSSQVRKYRSYDNRDKRKPSKIGNNLQVENEEDYEDDTSSEASFVLNPTNIGMSKSSQGHVTKTTRLNNNTNSKLRRKSILHTIRNSIASGADLPIENDNVVNLGDLHPNNRISLGSGAARVVNGPVTKNRNSMFSGRAERKPTESRHSVAKKTEKKINTRPPFR
